{"source": "patent US20250376495", "biological_target": "ubiquitin, P0CG48", "sequence (P0CG48 whole entry, looked up)": "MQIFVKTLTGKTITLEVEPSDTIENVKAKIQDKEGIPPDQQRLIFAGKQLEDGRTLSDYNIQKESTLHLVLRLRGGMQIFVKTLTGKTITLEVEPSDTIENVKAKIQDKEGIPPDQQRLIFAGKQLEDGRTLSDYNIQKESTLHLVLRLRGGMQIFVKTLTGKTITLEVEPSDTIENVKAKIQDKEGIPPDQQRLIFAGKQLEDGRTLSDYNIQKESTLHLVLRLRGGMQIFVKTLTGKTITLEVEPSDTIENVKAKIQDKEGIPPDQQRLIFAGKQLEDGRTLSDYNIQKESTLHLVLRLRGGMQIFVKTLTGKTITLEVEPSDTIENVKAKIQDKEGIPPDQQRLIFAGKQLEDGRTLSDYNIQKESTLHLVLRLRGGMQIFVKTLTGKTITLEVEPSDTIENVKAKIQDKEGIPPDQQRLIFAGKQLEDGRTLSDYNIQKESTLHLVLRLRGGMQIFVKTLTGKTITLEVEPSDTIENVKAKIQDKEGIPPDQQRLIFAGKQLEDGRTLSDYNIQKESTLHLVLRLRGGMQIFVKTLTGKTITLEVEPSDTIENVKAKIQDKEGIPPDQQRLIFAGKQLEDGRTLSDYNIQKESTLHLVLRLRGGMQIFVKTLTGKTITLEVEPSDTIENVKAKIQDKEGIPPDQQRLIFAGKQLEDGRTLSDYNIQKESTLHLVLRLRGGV"}
{"protein": "TRIM21 RING E13A (protein) MASAARLTMMWEAVTCPICLDPFVEPVSIECGHSFCQECISQVGKGGGSVCPVCRQRFLLKNLRPNRQLANMVNNLKEISQEARE", "values": [{"measurement": "Ube2W-mediated TRIM21 RING monoubiquitination time-course", "result": "TRIM21 mutants E13A and E13R both showed a slight reduction in activity"}]}
{"protein": "TRIM21 RING E13R (protein) MASAARLTMMWERVTCPICLDPFVEPVSIECGHSFCQECISQVGKGGGSVCPVCRQRFLLKNLRPNRQLANMVNNLKEISQEARE", "values": [{"measurement": "Ube2W-mediated TRIM21 RING monoubiquitination time-course", "result": "TRIM21 mutants E13A and E13R both showed a slight reduction in activity"}]}
